Source: PMC4612324, “Comparing the efficacy and neuroinflammatory potential of three anti-abeta antibodies” (Acta Neuropathologica, 2015)

Target: T1, Aβ 1-40 peptide (UniProt P05067 672-711)
T1 construct: amyloid beta peptide Aβ 1-40, cut product of the amyloid precursor protein (APP); the methods call it a bought peptide, the results a 'recombinant peptide'; also called recombinant peptide; immobilised Aβ; source: bought: America Peptide, Sunnyvale, CA
Experiment: ELISA; Aβ1-40 peptide coated on Maxisorp plates (0.1 µg/ml, bicarbonate buffer pH 9.6); antibodies serially diluted in PBS/1 % BSA, 1 h at room temperature; detected with biotinylated anti-mouse IgG and streptavidin poly-HRP; relative affinity
Conditions: both partners purified

- EC50: 0.0174 nM
B1: mC2 (murine parent antibody of Crenezumab), recombinant with mouse IgG2a constant region (antibody, V domains shown)
VH: EVQLVESGGGLVQPGGSLKLSCAASGFTFSSYGMSWVRQTPDKRLELVASINSNGGSTYYPDSVKGRFTISRDNAKNTLYLQMSSLKSEDTAMYYCASGDYWGQGSTLTVSS
VL: DVVMTQTPLSLPVSLGDQASISCRSSQSLVYSNGDTYLHWYLQKPGQSPKLLIYKVSNRFSGVPDRFSGSGSGTDFTLKISRVEAEDLGVYFCSQSTHVPWTFGGGTKLEIKR
notes: heavy chain variable domain of mC2; mouse IgG2a heavy chain constant domain; light chain variable domain of mC2; mouse kappa light chain constant domain; mouse IgG2a, kappa; variable domain joined directly to the constant domain (synthetic genes); also called murine version of Crenezumab; Crenezumab-mC2; source: HEK293 6E cells, transient transfection (pTT5), purified from culture media …
